“Also recorded” adds a separate entry of the source. Blank lines part the entries; values can stand above or below the molecule they belong to. Where no end group is shown, it is not given here.
Tests used:
LGR7 [1] = molecular target: T1, LGR7 (Homo sapiens, UniProt Q9HBX9); assay: Receptor-binding assay: competition for 125I-labeled RLN2 binding to LGR7-expressing HEK293T cells; details: for LGR7-binding activity (result in words): competition for labeled RLN2 binding to LGR7
T1 construct: HEK293T cells stably expressing recombinant LGR7 or LGR8; expressed in transfected cells
T1 sequence (Q9HBX9 1-757): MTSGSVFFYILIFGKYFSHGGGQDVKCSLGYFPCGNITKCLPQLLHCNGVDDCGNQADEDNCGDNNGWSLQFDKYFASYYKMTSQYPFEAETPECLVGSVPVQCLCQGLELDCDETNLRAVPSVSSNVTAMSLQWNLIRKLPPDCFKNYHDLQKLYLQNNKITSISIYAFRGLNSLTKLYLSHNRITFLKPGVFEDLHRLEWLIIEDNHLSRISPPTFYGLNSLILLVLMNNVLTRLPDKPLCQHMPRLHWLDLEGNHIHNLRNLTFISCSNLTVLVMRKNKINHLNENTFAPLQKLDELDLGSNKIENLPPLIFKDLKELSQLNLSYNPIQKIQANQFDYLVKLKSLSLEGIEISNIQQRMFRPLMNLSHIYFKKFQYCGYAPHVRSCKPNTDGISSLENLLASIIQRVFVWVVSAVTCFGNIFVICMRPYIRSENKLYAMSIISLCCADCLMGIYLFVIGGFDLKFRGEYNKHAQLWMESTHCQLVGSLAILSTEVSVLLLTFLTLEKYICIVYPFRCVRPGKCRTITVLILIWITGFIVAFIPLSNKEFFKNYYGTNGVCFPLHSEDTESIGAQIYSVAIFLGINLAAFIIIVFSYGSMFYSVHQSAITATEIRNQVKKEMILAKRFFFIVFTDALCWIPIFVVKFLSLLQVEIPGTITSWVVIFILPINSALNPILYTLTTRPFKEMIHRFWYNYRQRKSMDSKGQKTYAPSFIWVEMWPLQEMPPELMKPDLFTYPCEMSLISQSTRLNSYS
Procedure: (§1) To determine the binding characteristics of wild type and mutant peptides, HEK293T cells expressing LGR7 or LGR8 were grown to 90% confluence, collected by centrifugation at 3000×g for 2 min, and washed two times in 2 ml of ice-cold binding buffer. Cells were resuspended in ice-cold binding buffer, and aliquots of cell suspension were incubated with increasing doses of purified recombinant peptides in the presence of 0.025 pmol of ^125I-labeled RLN2 tracer (Phoenix Pharmaceuticals, Burlingame, Calif.) at room temperature for 2 h. After washing three times in an ice-cold binding buffer, radioactivity bound to the cells was measured using a γ-counter (EG&G Wallace, Gaithersburg, Md.). Total binding was determined in the absence, and nonspecific binding in the presence, of 25 nmol of unlabeled RLN2. In regular assays, total binding was ˜30,000 cpm, and nonspecific binding amounted to less than 20% of the total binding. Data points were collected in triplicate, and similar results were obtained in at least two independent assays.
(§2) Receptor-activation and receptor binding activity curves generated in nonlinear regression analyses (Prism; GraphPad Software, San Diego, Calif.) were evaluated relative to the samples without hormone treatment. In all cases data are reported as the mean±S.E. of assays in triplicate or quadruplicate. Statistically significant responses (p<0.05) were determined for each stimulated response to the average nonspecific response from control samples using analysis of variance and Student's t test.

LGR7 [2] = molecular target: T1, LGR7; assay: Receptor-activation analysis: cAMP production in LGR7-expressing HEK293T cells; type: cell-based; details: for LGR7-activation activity (result in words): LGR7-expressing HEK293T cells; for pEC50 on the activation of LGR7: HEK293T cells stably expressing LGR7, mean ± S.E., ND = pEC50 not measurable
Procedure: (§3) The bioactivity of relaxin family peptides was determined based on the stimulation of adenylate cyclase activity in HEK293T cells stably expressing recombinant LGR7 or LGR8. Stable LGR7- or LGR8-expressing cells were maintained in Dulbecco's modified Eagle's medium/F-12 media supplemented with […] Zeocin (Invitrogen). After seeding at a density of 2×10^5 cells per well in 500 μl of Dulbecco's modified Eagle's medium/F-12 medium containing 0.1% bovine serum albumin in 48-well plates, cells were preincubated at 37° C. for 30 min in the presence of 0.25 mM 3-isobutyl-1-methylxanthine before treatment with increasing concentrations of peptides (from 0 to 100 nM) in quadruplicate. Twelve hours after treatment, the culture was reacted with acetic anhydride/triethylamine, and total cAMP content in cell lysates was measured using a specific cAMP radioimmunoassay. A nontagged human RLN2 peptide was used as a standard to verify the bioactivity of tagged RLN2 peptides.
as §2

LGR8 [3] = molecular target: T2, LGR8 (Homo sapiens, UniProt Q8WXD0); assay: Receptor-activation analysis: cAMP production in LGR8-expressing HEK293T cells; type: cell-based; details: for LGR8-activation activity (result in words): LGR8-expressing HEK293T cells
T2 construct: HEK293T cells stably expressing recombinant LGR7 or LGR8; expressed in transfected cells
T2 sequence (Q8WXD0 whole entry): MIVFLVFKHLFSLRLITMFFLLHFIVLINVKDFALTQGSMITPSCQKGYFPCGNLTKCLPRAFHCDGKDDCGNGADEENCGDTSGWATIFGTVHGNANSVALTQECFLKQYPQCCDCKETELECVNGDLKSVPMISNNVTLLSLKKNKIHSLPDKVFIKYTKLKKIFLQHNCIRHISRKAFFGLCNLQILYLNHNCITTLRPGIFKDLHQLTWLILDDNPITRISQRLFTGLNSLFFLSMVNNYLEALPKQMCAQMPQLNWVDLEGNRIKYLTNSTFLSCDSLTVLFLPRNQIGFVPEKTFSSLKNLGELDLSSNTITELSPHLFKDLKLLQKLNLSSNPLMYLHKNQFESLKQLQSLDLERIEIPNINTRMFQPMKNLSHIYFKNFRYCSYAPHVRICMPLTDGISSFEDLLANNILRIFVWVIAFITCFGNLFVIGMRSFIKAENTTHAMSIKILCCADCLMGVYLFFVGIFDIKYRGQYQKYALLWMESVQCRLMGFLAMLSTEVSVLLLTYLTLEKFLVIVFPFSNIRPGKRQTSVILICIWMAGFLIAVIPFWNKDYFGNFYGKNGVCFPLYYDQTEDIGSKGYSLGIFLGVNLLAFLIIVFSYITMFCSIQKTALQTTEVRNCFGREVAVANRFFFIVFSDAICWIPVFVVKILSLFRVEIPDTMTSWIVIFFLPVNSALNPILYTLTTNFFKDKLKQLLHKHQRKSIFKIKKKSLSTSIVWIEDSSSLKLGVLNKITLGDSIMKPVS
Procedure: as §3, §2

LGR8 [4] = molecular target: T2, LGR8; assay: Receptor-binding assay: competition for 125I-labeled RLN2 binding to LGR8-expressing HEK293T cells; details: for LGR8-binding activity (result in words): competition for labeled RLN2 binding to LGR8
Procedure: as §1, §2

- LGR7-binding activity (result in words) (LGR7 [1]): high affinity
Molecule: RLN2 C-8: Myc- and His6-tagged RLN2 from construct with a truncated C-domain of 8 amino acids (chain 1 SWMEEVIKLCGRELVRAQIAICGMSTWSHHHHHH; chain 2 QLYSALANKCCHVGCTKRSLARFC; ends and bridges not checked; also: Myc tag, not in given chain)

Molecule: RLN2 K^A17A: RLN2 mutant with alanine substitution at LysA17 of the A chain (chain 1 SWMEEVIKLCGRELVRAQIAICGMSTWSHHHHHH; chain 2 QLYSALANKCCHVGCTARSLARFC; not fully specified; ends and bridges not checked)
- LGR7-activation activity (result in words) (LGR7 [2]): high potencies on the activation of both LGR7 and LGR8
- LGR8-activation activity (result in words) (LGR8 [3]): significantly enhanced LGR8-activation activity
- LGR8-activation activity (result in words) (LGR8 [3]; listed as RLN2 KA17A): high potencies on the activation of both LGR7 and LGR8

- LGR7-activation activity (result in words) (LGR7 [2]; listed as FA23A): preferentially activate LGR7
- LGR8-activation activity (result in words) (LGR8 [3]; listed as RLN2 FA23A): lacks an LGR8-activation activity
- LGR8-activation activity (result in words) (LGR8 [3]; listed as RLN2 F^A23A): ablated
- LGR8-binding activity (result in words) (LGR8 [4]; listed as RLN2 F^A23A): significantly reduced
Molecule: RLN2 P^A23A: RLN2 mutant with alanine substitution at the PheA23 position (chain 1 SWMEEVIKLCGRELVRAQIAICGMSTWSHHHHHH; chain 2 QLYSALANKCCHVGCTKRSLARAC; not fully specified; ends and bridges not checked)
- LGR7-activation activity (result in words) (LGR7 [2]; listed as RLN2 FA23A): retains an LGR7-activation activity similar to that of wild type peptides
- LGR7-binding activity (result in words) (LGR7 [1]; listed as RLN2 FA23A): affinities similar to that of wild type peptides
- LGR7-binding activity (result in words) (LGR7 [1]; listed as RLN2 F^A23A): without an effect on LGR7-binding activity
- LGR8-binding activity (result in words) (LGR8 [4]; listed as RLN2 FA23A): significantly reduced the affinity for LGR8

- LGR7-activation activity (result in words) (LGR7 [2]): minimal effect
- LGR8-activation activity (result in words) (LGR8 [3]): minimal effect
Molecule: RLN2 R^A22A: RLN2 mutant with alanine substitution at the ArgA22 position (chain 1 SWMEEVIKLCGRELVRAQIAICGMSTWSHHHHHH; chain 2 QLYSALANKCCHVGCTKRSLAAFC; not fully specified; ends and bridges not checked)
- LGR7-binding activity (result in words) (LGR7 [1]): affinities similar to that of wild type peptides

Molecule: RLN2 R^B12A: RLN2 mutant with alanine substitution of ArgB12 in the B chain RXXXRXXI motif (chain 1 SWMEEVIKLCGAELVRAQIAICGMSTWSHHHHHH; chain 2 QLYSALANKCCHVGCTKRSLARFC; not fully specified; ends and bridges not checked)
- LGR7-activation activity (result in words) (LGR7 [2]): abolished the LGR7- and LGR8-activation activities
- LGR8-activation activity (result in words) (LGR8 [3]): abolished the LGR7- and LGR8-activation activities

Molecule: RLN2 R^B16A: RLN2 mutant with alanine substitution of ArgB16 in the B chain RXXXRXXI motif (chain 1 SWMEEVIKLCGRELVAAQIAICGMSTWSHHHHHH; chain 2 QLYSALANKCCHVGCTKRSLARFC; not fully specified; ends and bridges not checked)
- LGR7-activation activity (result in words) (LGR7 [2]): abolished the LGR7- and LGR8-activation activities
- LGR8-activation activity (result in words) (LGR8 [3]): abolished the LGR7- and LGR8-activation activities

Molecule: RLN2 T^A16A: RLN2 mutant with alanine substitution at ThrA16 of the A chain (chain 1 SWMEEVIKLCGRELVRAQIAICGMSTWSHHHHHH; chain 2 QLYSALANKCCHVGCAKRSLARFC; not fully specified; ends and bridges not checked)
- LGR7-activation activity (result in words) (LGR7 [2]): high potencies on the activation of both LGR7 and LGR8
- LGR8-activation activity (result in words) (LGR8 [3]): significantly enhanced LGR8-activation activity
- LGR8-activation activity (result in words) (LGR8 [3]; listed as RLN2 TA16A): high potencies on the activation of both LGR7 and LGR8

- LGR7-binding activity (result in words) (LGR7 [1]): reduced affinity for LGR7
- LGR8-binding activity (result in words) (LGR8 [4]): lost its LGR8-binding activity
Molecule: RLN2^A22-23: RLN2 mutant with alanine substitution at the A22-23 region of the A chain (chain 1 SWMEEVIKLCGRELVRAQIAICGMSTWSHHHHHH; chain 2 QLYSALANKCCHVGCTKRSLAAAC; not fully specified; ends and bridges not checked)
- LGR8-activation activity (result in words) (LGR8 [3]): ablates LGR8, but not LGR7, activation activity; also recorded: almost abolished

- pEC50 on the activation of LGR7 (LGR7 [2]): 7.73 ± 0.07
- LGR7-activation activity (result in words) (LGR7 [2]): selectively activated
Molecule: WT RLN3: recombinant wild type human relaxin 3 [reference compound]

- pEC50 on the activation of LGR7 (LGR7 [2]): 9.30 ± 0.04
- pEC50 on the activation of LGR8 (LGR8 [3]; HEK293T cells stably expressing LGR8, mean ± S.E., ND = pEC50 not measurable): 7.41 ± 0.14
- pIC50 in competition for RLN2 binding to LGR7 (LGR7 [1]; 125I-labeled RLN2 tracer, LGR7-expressing HEK293T cells, mean ± S.E.): 8.72 ± 0.06
- pIC50 in competition for RLN2 binding to LGR8 (LGR8 [4]; 125I-labeled RLN2 tracer, LGR8-expressing HEK293T cells, mean ± S.E., ND = pIC50 not measurable): 7.90 ± 0.16
B1: WT RLN2: recombinant tagged wild type human relaxin H2 (RLN2) (protein, listed as Homo sapiens)
chain: MPRLFFFHLLGVCLLLNQFSRAVADSWMEEVIKLCGRELVRAQIAICGMSTWSKRSLSQEDAPQTPRPVAEIVPSFINKDTETINMMSEFVANLPQELKLTLSEMQPALPQLQQHVPVLKDSSLLFEEFKKLIRNRQSEAADSSPSELKYLGLDTHSRKKRQLYSALANKCCHVGCTKRSLARFC
modifications: tag; RLN2 polypeptide
- LGR7-activation activity (result in words) (LGR7 [2]): activates both receptors at the nanomolar range
- LGR8-activation activity (result in words) (LGR8 [3]): activates both receptors at the nanomolar range

Reference: US9815881B2, “Method of inducing labor or treating pre-eclampsia by administering relaxin analogs” (The Board of Trustees of the Leland Stanford Junior …, priority 2009, dated 2017)
